Test results reported in US7129332.

Experiments:
[1] = biological target: EGFRvIII peptide (…-biotin); experiment: SPR (BIAcore), biotinylated peptide on streptavidin chip, immunotoxin injected
[2] = biological target: EGFRvIII (mutant epidermal growth factor receptor) on NR6M cells (human) (UniProt P00533); experiment: cell-based or functional assay

Substance “MR1(Fv)-PE38 (from UniProt P11439 278-389; P11439 406-638) (scFv)” has a Kd [1] of 8 nM, an IC50, cytotoxic activity, Experiment 1 [2] of 9.2 ng/mL and an IC50, cytotoxic activity, Experiment 2 [2] of 6.6 ng/mL. It also gave an IC50, cytotoxicity (inhibition of [3H]-leucine incorporation) on NR6M cells [2] of 8 ng/mL.
